Consider five molecules from patent US20260232734A1 (published 2026).

Test [1] addresses T1, KRAS G12D peptide on HLA-A*11:01 (human).
T1 peptide: VVVGADGVGK
Description: activation reporter or marker.

Test [2] has as its target T2, KRAS wild type peptide on HLA-A*11:01 (human).
T2 peptide: VVVGAGGVGK
Briefly: activation reporter or marker.

Test [3] concerns the target T1, KRAS G12D peptide on HLA-A*11:01. Description: cytokine release.
Test [4] has as its target T3, KRAS G12D peptide on HLA-A*11:01 (human).
T3 peptide: VVGADGVGK
Briefly: cytokine release.

In test [5] the target is KRAS G12D neoantigen endogenously presented by HLA A*11:01 on KRAS-p.G12D tumor or transfected cell lines (human). Briefly: cell-based or functional assay.
Test [6] concerns the target T1, KRAS G12D peptide on HLA-A*11:01. Briefly: killing.
Test [7] deals with T4, KRAS wild type peptide on HLA-A*11:01 (human).
T4 peptide: VVGAGGVGK
Description: killing.

Test [8] deals with T3, KRAS G12D peptide on HLA-A*11:01. Description: killing.
Test [9] addresses T2, KRAS wild type peptide on HLA-A*11:01. Description: killing.

B1: EE208_KRAS_1 (TCR, V domains shown)
Valpha: GNSVTQMEGPVTLSEEAFLTINCTYTATGYPSLFWYVQYPGEGLQLLLKATKADDKGSNKGFEATYRKETTSFHLEKGSVQVSDSAVYFCALSDGAGGFKTIFGAGTRLFVKA
Vbeta: EADIYQTPRYLVIGTGKKITLECSQTMGHDKMYWYQQDPGMELHLIHYSYGVNSTEKGDLSSESTVSRIRTEHFPLTLESARPSHTSQYLCASSESLYNEQFFGPGTRLTVL
Turning to B1, the figures for the binding result in test [1] and in [2] were “recognises” and “no recognition”, respectively.

B2: PD6_KRASmut_22 (TCR, V domains shown)
Valpha: AQTVTQSQPEMSVQEAETVTLSCTYDTSESDYYLFWYKQPPSRQMILVIRQEAYKQQNATENRFSVNFQKAAKSFSLKISDSQLGDAAMYFCAYYSGGGADGLTFGKGTHLIIQP
Vbeta: SAVISQKPSRDICQRGTSLTIQCQVDSQVTMMFWYRQQPGQSLTLIATANQGSEATYESGFVIDKFPISRPNLTFSTLTVSNMSPEDSSIYLCSVTWAGGWSYGYTFGSGTRLTVV
Turning to B2, the binding result in test [3] and in [4] was “recognises” in each case.

B3: EE209_2 TCR (SEQ ID NOs: 12 and 13; beta chain using TRBC2-201) (TCR)
TCR alpha: ILNVEQSPQSLHVQEGDSTNFTCSFPSSNFYALHWYRWETAKSPEALFVMTLNGDEKKKGRISATLNTKEGYSYLYIKGSQPEDSATYLCAFLPGYSTLTFGKGTMLLVSPDIQNPDPAVYQLRDSKSSDKSVCLFTDFDSQTNVSQSKDSDVYITDKTVLDMRSMDFKSNSAVAWSNKSDFACANAFNNSIIPEDTFFPSPESSCDVKLVEKSFETDTNLNFQNLSVIGFRILLLKVAGFNLLMTLRLWSS
TCR beta: DAGITQSPRYKITETGRQVTLMCHQTWSHSYMFWYRQDLGHGLRLIYYSAAADITDKGEVPDGYVVSRSKTENFPLTLESATRSQTSVYFCASSVGRGGTEAFFGQGTRLTVVEDLKNVFPPKVAVFEPSEAEISHTQKATLVCLATGFYPDHVELSWWVNGKEVHSGVSTDPQPLKEQPALNDSRYCLSSRLRVSATFWQNPRNHFRCQVQFYGLSENDEWTQDRAKPVTQIVSAEAWGRADCGFTSESYQQGVLSATILYEILLGKATLYAVLVSALVLMAMVKRKDSRG
Turning to B3, in test [5], the CD137 upregulation was 7 of 7 lines, the IFNg production was 5 of 7 lines, the granzyme B production is 6 of 7 lines and the killing activity (impedance assay) was 5 of 7 lines.

B4: EE209_2 TCR (TCR, V domains shown)
Valpha: ILNVEQSPQSLHVQEGDSTNFTCSFPSSNFYALHWYRWETAKSPEALFVMTLNGDEKKKGRISATLNTKEGYSYLYIKGSQPEDSATYLCAFLPGYSTLTFGKGTMLLVSP
Vbeta: DAGITQSPRYKITETGRQVTLMCHQTWSHSYMFWYRQDLGHGLRLIYYSAAADITDKGEVPDGYVVSRSKTENFPLTLESATRSQTSVYFCASSVGRGGTEAFFGQGTRLTVV
As to B4, the binding result in [6] is on record as “recognises”; in test [7], “no recognition”; in test [8], “recognises”; in test [9], “no recognition”.

B5: EE184_KRAS_8a (TCR, V domains shown)
Valpha: AQTVTQSQPEMSVQEAETVTLSCTYDTSESDYYLFWYKQPPSRQMILVIRQEAYKQQNATENRFSVNFQKAAKSFSLKISDSQLGDAAMYFCAYKKYNDMRFGAGTRLTVKP
Vbeta: DGGITQSPKYLFRKEGQNVTLSCEQNLNHDAMYWYRQDPGQGLRLIYYSQIVNDFQKGDIAEGYSVSREKKESFPLTVTSAQKNPTAFYLCASSTGAGAFRTEAFFGQGTRLTVV
For B5, the binding result is reported as “no recognition” in test [2], “recognises” in test [6] and “recognises” in test [8].
